From patent US20040072743A1 (priority 2000, published 2004)

Legend:
[1] = female, NMRI, mouse, in vivo
[2] = female, NMRI, mouse, in vivo, sc

| Substance | oral bioavailability (AUC [p.o. adm]/AUC [i.v. adm])×100% [1] [%] | subcutaneous bioavailability (AUC [s.c.adm]/AUC [i.v. adm])×100% [2] [%] |
| --- | --- | --- |
| H-KFFKFFKFFK-achc-b.Ala-TTCTAACATTTA-NH2 [Compound V] | 9 | 68 |
| H-KFFKFFKFFK-b.cypr-g.abu-ACTTTGTCGCCA-NH2 [Compound IV] | 24 | 78 |
| H-KFFKFFKFFK-g.abu-PheGly-TTCTAACATTTA-NH2 [Compound VI] | 6 | 62 |
| H-KFFKFFKFFK-pfPhe-cha-TTCTAACATTTA-NH2 [Compound VII] | 54 | 69 |
